The text below walks through data of the nanobody polyreactivity screen of Harvey et al. (2022).

The nature of this data set: yeast display, Sf9 membrane polyspecificity reagent, FACS + sequencing; frameworks hold sequencing errors. An outline of the steps:
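Galactose-induced (36–48 hours) yeast carrying a synthetic nanobody display library were exposed to 10% biotinylated, detergent-solubilized Sf9 membrane reagent at 4 °C for 1 hour. FACS followed streptavidin microbead enrichment, using low and high (top ~1%) gates for expression (anti-HA) and reagent binding (streptavidin). Colony PCR, MiSeq 2 × 250 sequencing and CDR-length filtering followed. Labels for polyreactivity reflect the gate of origin.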
As to “QVQLVESGVGLVQAGGSLRLSCAASGRIFVKYAMGWYRQAPGQEREFVAAITQGGGRTFYADSVKGRFTSSRDNAKNTVYLQMNSLKPEDTAVYYCAATGRGYGRRYFVVYRYDYWGQGTQVTVSS”, the “polyreactivity (PSR sort gate)” value is on record as “high polyreactivity”.

For “QVQLVESGVGLVQAGGSLRLSCAASGRIVWGYAMGWYRQAPGKERELVATITRGGSTNYADSVKGRFTISRDNAKHTVYLQMNSLKPEDTAVYYCARDWGKSEYDYWGQGTQVTVSS”, the “polyreactivity (PSR sort gate)” value is listed as “high polyreactivity”.

Regarding “QVQLVESGVGLVQAGGSLRLSCAASGSIFFYAMGWYRQAPGKERELVADITYTGGSKYADSVKGRFTISRDNAKNTVYLQMNSLKPEDTAVYYCAKLDGGLFDYWGQGTQVTVSS”, the “polyreactivity (PSR sort gate)” value is recorded as “low polyreactivity”.

For “QVQLVESGVGLVQAGGSLRLSCAASGSIFGFYAMGWSRQAPGKERELVAAISDSGDSTYYADSVKGRFTISRDNAKNTVYLQMNSLKPEDTAVYNCATDGRSNYYWGDYWGQGTQVTVSS”, the “polyreactivity (PSR sort gate)” value is “low polyreactivity”.

“QVQLVESGVGLVQAGGSLRLSCAASGSIFGFYAMGWYRQAPGKERELVAAITSGDSTHYADSVKGRFTISRDNAKNTVYLQMNSLKPEDTAVYYCAASAPYRYYRSAYYYWGQGTQVTVSS”: the “polyreactivity (PSR sort gate)” value is on record as “low polyreactivity”.

For “QVQLVESGVGLVQAGGSLRLSCAASGSIFTYNAMGLYRQAPGKERELVAAISRRGGTTYYADSVKGRITISRDNAMNTVYLKMNSLKPEDTAVYYCNVARHYAVESGFWGPGTQVTVSS”, the “polyreactivity (PSR sort gate)” value is “high polyreactivity”.

As for “QVQLVESGVGLVQAGGSLRLSCAASGSIINFYAMGLYRQAPGKERELVAAINYNDINTYYADSVKGRFTISRDNAKNTVYLQMNSLKPEDTAVYYCNAELNVQYLYGYTGEYDYWGQGTQVTVSS”, the “polyreactivity (PSR sort gate)” value was “low polyreactivity”.

Consider “QVQLVESGVGLVQAGGSLRLSCAASGSILFYYAMGWYRQAPGKERELVAAITYSGARSYYADSVKGRFTISRDNAKNTVYLQMNSLKPEDTAVYYWAADQVYGIGYEYWGQGTQVTVSS”, for which the “polyreactivity (PSR sort gate)” value is “low polyreactivity”.

For the sequence “QVQLVESGVGLVQAGGSLRLSCAASGSTFDTYAMGWYRQAPGKERELVAAITSSGSTYYADSVKGRFTISRDNAKNTVYLQMNSLKPEDTAVYYCAADLSYLYAHNPGDYWGQGTQVTVSS”, the “polyreactivity (PSR sort gate)” value is “low polyreactivity”.

Consider “QVQLVESGVGLVQAGGSLRLSCAASGSTFEYNAMGWYRQAPGKERELVASSTNYADSVKGRFTISRDNAKNTVYLQMNSLKPEDTAVYYCAREQGVNRNHDYWGQGTQVTVSS”, for which the “polyreactivity (PSR sort gate)” value is listed as “low polyreactivity”.

Consider “QVQLVESGVGLVQAGGSLRLSCAASGSTFGRYAMGWYRQAPGKERELVARISWGGGSTYYADSVKGRFTISRDNAKNTVYILMISLKPEDSAVYDCATRVYRSAVSYDYWGQGTQVTVSS”, for which the “polyreactivity (PSR sort gate)” value is reported as “high polyreactivity”.

With “QVQLVESGVGLVQAGGSLRLSCAASGSTFVKYVIGWYRQAPGKERELVAAISRSGGSTYYADSVKGRFTISRDNAKNTDYLQMNSLKPDDTAVYYCAARLFYRLDYRGGYYYWGQGTQVTVSS”, the “polyreactivity (PSR sort gate)” value was “high polyreactivity”.

In the case of “QVQLVESGVGLVQAGGSLRLSCAPSGSIFGRNAMGWYRQAPGKERELVAAISGGGSTNYSDSVKGRFTISRDNAKNTVYLQMNSLKPEDTAVYYCNTYPGSRHWWYDYWGQGTQGTVSS”, the “polyreactivity (PSR sort gate)” value was “high polyreactivity”.

“QVQLVESGVGLVQAGGSLRLSCASSGRIFGHYAMGWYRQAPGTERELVAAISWRGGRTYYADSVKGRFTISRDHAKNTVYLQMNSLKPEDTAVYYCAAGSSRVFRKAGITRPSGLYYYWGQGTQVSVSS”: the “polyreactivity (PSR sort gate)” value is recorded as “high polyreactivity”.

“QVQLVESGVGLVQAGGSLRLSCASSGSIFGRYTMGWYRQAPGKERELVAAITLRGGSTYYADSVKGRFTISRDNAKNTVYLQMNSLNQEDSAVYYCANDGWKQSAYDYWGQGTQVTVSS”: the “polyreactivity (PSR sort gate)” value is recorded as “low polyreactivity”.

As to “QVQLVESGVGLVQAGGSLRLSCVASGLTFSRYAMGWYRQAPGKERELVAAISRRGGTTYYADSVKGRFTISRDNAKNTVYLQMKSLKPEDTAVYYCGAGYITWGSGNWVVTPYAYWGQGTQVSVSS”, the “polyreactivity (PSR sort gate)” value was “high polyreactivity”.

For “QVQLVESGVGLVQAGGSLRLSSAASGSIFHSYAMGWYRQAPGKERELVASITASGDSTYYADSVKGRFTISRDNAKNTVYLPMNSLKPEDTAVFYCNTQAVYGGGEGGYDYWGQGTQVTVSS”, the “polyreactivity (PSR sort gate)” value is given as “low polyreactivity”.

For the sequence “QVQLVESGVGLVQAGGSLRLSSAASGSISYSYAMGWYRQAPGKERELVAAITWVGDSTYYADSVKGRFTISRDNAKNTVYLQMNRQKPEDTAVYYCAADLRFTYPVYRHGGGYDYWGQGTQVTVSS”, the “polyreactivity (PSR sort gate)” value is listed as “low polyreactivity”.

Turning to “QVQLVESGVGLVQAGGSLRLTCAASGRIFDYYAMGWSRQAPGKETELVARISRGATTNYADSVKGRFTISRDNAKNTVYLQINSLKPEDTAVYSCNARQYLAYVSWKGMGFWGQGTQVTVSS”, the “polyreactivity (PSR sort gate)” value is on record as “high polyreactivity”.

Regarding “QVQLVESGVGLVQAGGSLSLICAASGRIFWPNAMGSYRQAPGKERELVAAISRGGNTNYADSVKGRFTISRDNAKNTVYLQMNSLKPEDTAVYYCAARNFALGYRFDYWGQGTQVTVSS”, the “polyreactivity (PSR sort gate)” value is on record as “high polyreactivity”.

For the sequence “QVQLVESGVGLVQAGGSLSLSCAASGFTISLNTMGWYRQAPGKERELVAAITYSGTRTYYADSVKGRFTISRDNAKNTVDLQMNRLKPEDTAVYYCAARHGQSWQWLEYDYWGQGTQVTVSS”, the “polyreactivity (PSR sort gate)” value is “low polyreactivity”.

With “QVQLVESGVGLVQAGGSLSLSCAASGRIFTYNALGWYRQAPGKERELVAAISALGGITYYADSVKGRFTISRDNAKITVYLQMNSLKPEDTAVYYCNKRYSSWSGVHDYWGQGTQVTVSS”, the “polyreactivity (PSR sort gate)” value is recorded as “high polyreactivity”.

Take “QVQLVESGVGLVQAGGSVRLSCAASGRTFTRYAMGWYRQAPGKEREWVAAITWSGGSTYYADSVKGRFTISRDNAKNTVYLQMNSLKPEDTAVYYCNAQRYGLFGSEHGYWGQGTQVTVSS”: the “polyreactivity (PSR sort gate)” value is recorded as “high polyreactivity”.

For the sequence “QVQLVESGVGLVQAGGSVRLSCAASGRTFYRYAMGWYRQAPGKERELVAAISSGGSTYYADSVKGRFTISRDNAKNTVYLQMNSLKPEDTAVYYCNADYGRRNHMDYWGQGTQVTVSS”, the “polyreactivity (PSR sort gate)” value is given as “low polyreactivity”.

As for “QVQLVESGVGLVQAGVSLRLSCAASVSISTPYTMGWSRPAPGKERELVAAISWIGDTTSYADSVKGRFTISRDNAKNTVYLQMNRLKPEDTAVYYCNAEHRGYDYWGQGTQVTVSS”, the “polyreactivity (PSR sort gate)” value was “low polyreactivity”.

In the case of “QVQLVESGVGLVQAVGSLRLSSPTSGIIFRYYSMVWYRHAPGKESEYVAVITRRGGGTYYAYSVKGRFTISRDNAKNTVYFEMNSLKPEDTAVYYCAKDFTGHYPKGFDYWGQGTQVTVSS”, the “polyreactivity (PSR sort gate)” value was “low polyreactivity”.

For “QVQLVESGVGLVQSGGSLRLSCAASGFIFRWYAKGWYRQAPGKERELVAAISGGGSSTYYADSVKGRFTISRDNEKNTVYLQMNSLKPEDNAVYYCAAYNTYLGYPYYYWGQGTQVTVSS”, the “polyreactivity (PSR sort gate)” value is given as “high polyreactivity”.

For “QVQLVESGVVLVEAGGSLRLSCAASGRILSVYAMGWYRQAPRKERELVAAIRRGVGSTYYADSVKGRFTISRDNAKNTVYLQMNSLKPEDTADYYCAPYSYHNRIRYDSWGQGTQVTVSS”, the “polyreactivity (PSR sort gate)” value is “high polyreactivity”.

Turning to “QVQLVESGVVLVQAGGSLRLSCAASGSTFVRYAMGWYRQAPGKERELVAANSRSGGRTYYADSVKGRFTISRDNAKHTVYLQMNSLKPEDTAVYYCYPYYIASTFDYWGQGTQVTVSS”, the “polyreactivity (PSR sort gate)” value is “high polyreactivity”.

As to “QVQLVESLGGLVQAGASLRLSCAASARTFVIYSMGSYREAPGKERELVAAITWNGETTYYADSVKGRFTISRDNAKNTVYLQMNSLKPEDTAVYYCAAETRSEYHYWGQGTQVTVSS”, the “polyreactivity (PSR sort gate)” value is reported as “high polyreactivity”.

As to “QVQLVESLGGLVQAGGSLRLSCAASGRTFPGYAMGWYRQAPGKERELVAAISYTGTRTYYADSVKGRFTISRDNAKNTVYLQMNSLKPEDTAVYFCAAGVQRVSGSYGYWGQGTQVTVSS”, the “polyreactivity (PSR sort gate)” value is on record as “high polyreactivity”.

For the sequence “QVQLVESLGGLVQAGGSLRLSSAASGSIFRRYAMGWYREAPGKERELVAAITSGDTTKYADSLKGRFTISRDNAKNNVYLHMNSLKPEDTAVYYCNKKGWPRFVHGFLRRDDYWGQGTQVTLSS”, the “polyreactivity (PSR sort gate)” value is reported as “low polyreactivity”.

For “QVQLVESRAGLVQAGGSLRLSCAASGSTRNRNVMGWYRPAPGKERELVAVITYGVGSTYYADSVKGRFTISRDNAKNTVYLQMNSLKPEDTAVYYCNKDPLVFDYWAQGTQVTVSS”, the “polyreactivity (PSR sort gate)” value is “low polyreactivity”.

Regarding “QVQLVESRGCLVQAGGSLRLSCAASGRIFYYYDMGWYRQAPGKERELVAAITYSDSSTYADSVKRRFTISRDNAKNTVYLQMNSLKPEDTAVYYCAADYVYPGVRLEMDYWGQGTQVTVSS”, the “polyreactivity (PSR sort gate)” value is listed as “low polyreactivity”.

For the sequence “QVQLVESRGCLVQAGGSLRLSCAASGSTFYPYAMGWYRQAPGKERELVAGITVIDGSTYYADSVKGRFTISRDNAKNTVYLQMNSLKPEDTAVYYCAFDAPNQVQEYGYWGQGTQVTVSS”, the “polyreactivity (PSR sort gate)” value was “low polyreactivity”.

Regarding “QVQLVESRGFLVQAGGSLRLSCAAYGSSFFTYAMGWYRQAPRKERELVAGINWSGGSTYADSVKGRFTMSRDNAKNTVYLQMNSLKPEDTAVYFCAAKYYSERSRYHYWGQGTQVTVSS”, the “polyreactivity (PSR sort gate)” value was “low polyreactivity”.

Consider “QVQLVESRGGIVQAGGSLRLSCAASGRIFQYYAKGWYRQAPGKEWELVAAIISSGGRTYYADSVKGRFTISRDNAKKTVYVQMNSLKPEDTAVYYCNAVLSTRGMDFWGQGTQVTVSS”, for which the “polyreactivity (PSR sort gate)” value is reported as “high polyreactivity”.

As to “QVQLVESRGGLVQAGGSLPLSCAPSGRIFVRYAMGWYRQAPGKERELVAAISKSGGTTYYADSVKGRFTISRDNAKNTVYLQMNSLKPEDTAVYYCYALVRRRPGYIRYDYWGQGSQVTVSS”, the “polyreactivity (PSR sort gate)” value was “low polyreactivity”.

For the sequence “QVQLVESRGGLVQAGGSLRLRCAASGRIIIAYMAWYRQAPGKERELVAAIDSGASTYYADSVKGRFTISRDNAKNNVYLQMNSLIAEDTAVYYCASDVVYDYGGMDYWGQGTQVTVSS”, the “polyreactivity (PSR sort gate)” value is “low polyreactivity”.

As for “QVQLVESRGGLVQAGGSLRLSCAASGFIFKTNAMGWYRQAPVKERELVAAISNSDGSTYYADSVKGRFTISRDNAKNTVYLQMNSLKPEDTAVYYCAADRTDFWPYDYWGQGTQVTVSS”, the “polyreactivity (PSR sort gate)” value was “low polyreactivity”.

As to “QVQLVESRGGLVQAGGSLRLSCAASGFILSWYAMGWYRQARGKERELVAAISTSGDSTYYADSVKGRFTISRDNAKNTVYVQMNRLKPEDTAVYYCAAVKVSAGTSRGYYYWGPGTQVTVSS”, the “polyreactivity (PSR sort gate)” value is “high polyreactivity”.
